The supplement of paper PMC9170038

system: MS2 coat protein; experiment: apparent KD of MS2 coat protein; higher = weaker reporter binding; details: Eterna round: R107; input ligand: arginine 13.2 mM
How it was run: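 Apparent KD stands for the median, per design, of fits to normalised cluster binding curves. The curves came from titrating on-chip-transcribed RNA switches on Illumina sequencing clusters with SNAP-549-labelled MS2 coat protein, twofold from 0.7 or 1.5 nM to 3 µM. Buffer was 100 mM Tris-HCl pH 7.5, 80 mM KCl, 4 mM MgCl2, without or with constant ligand.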

Row | Sequence | apparent KD of MS2 coat protein
1 | CGAUCCUGCAGGGAUACCAGCGCCGCUUGAUAACUGUGCACAUGAGGAUCACCCAUGUAGCGCCCUUGGCAGCCCAGCUAGAGGG [Same State Theophylline B GF25] | 12.9 nM
2 | UGACAUUGCUCAGAUACCAGACAUGAGGAUCACCCAUGUACCAAGAAAACGUACAUAAAUGUCCCUUGGCAGCUGAGCAAUGUCU [TheoBX 10 #MS2Left #Theo2] | 175 nM
3 | GAUAGUUGAUGGGAUACCAGCGUGCACAUGAGGAUCACCCAUGUGGUUCGUGUACGACGGCGCCCUUGGCAGCCCAUAUUGUGUA [#13 Same State - Theophylline B] | 58.2 nM
4 | GCAAUAACGAUUGAUACCAGCAUGUUAACAUGAGGAUCACCCAUGUUAAGGAUAACAUAAUGCCCUUGGCAGCAACGGAAAGCCG [Ac] | 16.8 nM
5 | AGCUACUCGUUCCUCAUGUACGAGUGGCAACGAGGACCGGUACGGCCGCCACUCGAAUAAACAUGAGGAUCACCCAUGUACAAAU [T''-M-T'-T-MS2 - Design 8] | 42.9 nM
6 | GCAGACAUGAGGAUCACCCAUGUACUUGGGCGAGGACCGGUACGGCCGCCACUCGUAGACUUGACGAGGAAAUGUUCUCGCAGGG [theeternabot_sameState_MS2_Trp_A_24] | 22.1 nM
7 | GGUUACUCUACGGCCGCCACUGAAAAGUAAAUAUUAAUGUACAUGACAUGAGGAUCACCCAUGUACAGGACCGGGUAGUGUAACC [Tryptophan B 13] | 64.8 nM
8 | UCGCCCAGGAAGGAUUCCUGGGAUAUGGAAGGAGCGCUGAUGCCAGCAGGUAGGUCGCCAACGGACAUGAGGAUCACCCAUGUAC [Same State - Arginine A (Freestyle 8)] | 14.5 nM
9 | AAUAAACAUGAGGAUCACCCAUGUAUGGAAGGAGCGGUAAAUAAACCAGGUAGGUCGCCAGUGUGAGGGUCAUCUAUGUAAUAAA [Exclusion - Arginine A (Freestyle 1)] | 40.8 nM
10 | AGCGACAUGCGUGAUACCAGCUACAUGAGGAUCACCCAUGUCAGCAGGAAACUGCUGUGUAGCCCUUGGCAGCACAGUGCAUGUC [Exclusion - Theophylline B (Freestyle 28)] | 12.9 nM
11 | AUGUCACAUGAGGAUCACCCAUGUAUGGAUACCAGUUUAGUGAAUAACCCUUGGCAGCCAAGGAUGCGACAGAAAUCCGGAAAAC [theeternabot_sameState_MS2_Theo_A_22] | 19 nM
12 | UUUUUCGUAGGUUAUAGUUUAGAAACUGAAGGAGCGUGGUAAUACACAGGUAGGUCGCAGAUUUUACAUGAGGAUCACCCAUGUU [JR_ExcArginiA_Sub013] | 23.5 nM
13 | GGACUAACCAGAAGGAGCGGCACGCAGAAACUGCAAUUUCCUCCGCACGAGGAUCACCCGUGUCAGGUAGGUCGCUGGUUAGUCG | 21.8 nM
14 | CGGUUUGUGAUGGAUACCAGCAGAGUGGCUGUUUAUCCUGACAUGAGGAUCACCCAUGUGUGCCCUUGGCAGCUGUUGUGGGCUG [8.aB] | 85.8 nM
15 | GAUGAACUAUUUGAUACCAGACAACAUGAGGAUCACCCAUGUGCGCGUCGUCCUCUGCCUGUCCCUUGGCAGCAAAUAGUUUAUC [XTheo B #10] | 52.6 nM
16 | UAUAUAUUGAUGGAUACCAGCAGAGAAAACGUUUAUCCUAACAUGAGGAUCACCCAUGUAUGCCCUUGGCAGCUGUUGAUAUAUA [8.K] | 21.7 nM
17 | GAGAGAGGAGUGCGGCGUGUUCCGCUCCGUCGAGGACCGGUACGGCCGCCACUCGACAUGAGGAUCACCCAUGUCCUCUCUCGCG [#1 Exclusion - Tryptophan A Attempt #4 (HarryS)] | 16.8 nM
18 | GUUAUAUACUCGGCCGCCACUGAGAGAGUCAUGUAAACAUGAGGAUCACCCAUGUAAUAUAUAUACAGGACCGGGAGUAUAGUAA [4.D] | 19.8 nM

Row | Sequence | apparent KD of MS2 coat protein
19 | AGAUAACAUGGUUUAAUAAGAUAAACUGAUACCAGUGUAUAUAAUCACCCUUGGCAGCAGCAACAUGAGGAUCACCCAUGUAAUA [JR_SSTheophyA_Sub014] | 14.9 nM
20 | UGUGUAAUUGUCUGGUAGAAUUAUUUGUUUCGAGGACCGGUACGGCCGCCACUCGAUAUUUACAUGAGGAUCACCCAUGUUAGCU [JR_SSTryptoA_Sub004] | 13.9 nM
21 | AAACAGUCGGACAUGAGGAUCACCCAUGUGCGAGGACCGGUACGGCCGCCACUCGACAAGGGCGGUCCCGAAGCAAACAUACGCG [Enedquceor] | 12.2 nM
22 | UGUUUCGCGGGCGAUACCAGCUUGAUCGUACUGGCCUGGUACAUGAGGAUCACCCAUGUAAGCCCUUGGCAGCGCGCGCGAGACG [#1 Exclusion - Theophylline B Attempt #3 (HarryS)] | 19.6 nM
23 | GGUGGCGGGACUGAUACCAGCCACCACCGAUAGACCACAUGAGGAUCACCCAUGUUGGGUGGCCCUUGGCAGCAGUCUUGCUGCC [#1 Same State - Theophylline B Attempt #12 (HarryS)] | 24.2 nM
24 | AGUAUCAGUGGAAGGAGCGUCGCGAAUGCCACAUGAGGAUCACCCAUGUCGCCUUGAGCGCGACAGGUAGGUCGCCACGGUAGGC [SS-ArgB3] | 53.2 nM
25 | GCCGCGGCCGGAAUAAACAUGGGUAAAUAACGAGGACCGGUACGGCCGCCACUCGAGAUAAAUAACAUGAGGAUCACCCAUGUAC [Exclusion Tryp A GF11] | 43 nM
26 | CUUCGCAUAGGAAAACUAUGUGAAGAAAAUCGAGGACCGGUACGGCCGCCACUCGUCCUCAACAUGAGGAUCACCCAUGUAAUAA [Mat - Exclusion - Trytophan A - D6] | 17.3 nM
27 | CGUCGAGACUGAAGGAGCGAGAUAACAACAUUGGGUCUCAACAUGAGGAUCACCCAUGUAUCUCAGGUAGGUCGCGGUGUCACCG [Exclusion Arginine B GF20] | 137 nM
28 | AACAUGAGGAUCACCCAUGUGUCCUCGAAACGAGGACCGGUACGGCCGCCACUCGAAAAGGUGUUGACGAAAAGUCAGCACCAAA [Mat - Exclusion - Trytophan A - D16] | 129 nM
29 | AAACGUUGCUCAGAUACCAGACAUGAGGAUCACCCAUGUACCAAGGUACCCGAAAGGAAUGUCCCUUGGCAGCUGAGCAACGAAA [MAT - Exclusion Theophlline B - Mod of Eli - D21] | 11.1 nM
30 | GGCUGCGAUGGCGGAAAUUAUUUACAUAGGCGAGGACCGGUACGGCCGCCACUCGAACGUACAUGAGGAUCACCCAUGUGAUAAU [theeternabot_sameState_MS2_Trp_A_1] | 29 nM
31 | AGCGACAUGCGUGAUACCAGCUACAUGAGGAUCACCCAUGUACGUCAGAAAUGACUGUGUAGCCCUUGGCAGCAUAAUGCAUGUC [Exclusion - Theophylline B (Freestyle 19)] | 38.3 nM
32 | UCGCUCUGGGUGGGAUCCGGAGAUGUGGAAGGAGCGCUGGUAACAGCAGGUAGGUCGCCAACGGACAUGAGGAUCACCCAUGUAC [Same State - Arginine A (Freestyle 17)] | 25.2 nM
33 | UGACAUUGCUCAGAUACCAGACAUGAGCAUCAGCCAUGUGCCAACAAGUACAAAAUAAAUGUCCCUUGGCAGCUGAGCAAUGUCU [TheoBX 23 #MS2Left #AlternativeMS2 #Theo22] | 14.1 nM
34 | GAAAGAUGAGGCGGCAGUACCGAUGUCGAUACCAGCAUGAACAAAUGCCCUUGGCAGCGACAUGAGGAUCACCCAUGUAUCUGCG [Reraatlaan] | 14.5 nM
35 | UACAUGAGGAUCACCCAUGUGUAGAGGGAUACCAGUGACAGUAAGCGCCCUUGGCAGCCCGUGAACAAUGGGUGAGCUAAAUAGU [#18 Exclusion-TheophyllineA] | 28.7 nM
